# According to the supplement of paper PMC12764529:
# ± gives the half width of the 95% confidence interval.
# Experiment: folding stability dG unfold (combined trypsin and chymotrypsin); higher = more stable
# Procedure, shortened: (§1)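 Mini-proteins designed to be under 80 residues and free of cysteine were carried in a PA-tagged cDNA display construct and digested with trypsin and with chymotrypsin. Each protease was applied at 11 threefold-diluted concentrations, alongside a no-protease condition, before sequencing. K50 came from Bayesian fitting of the sequencing counts, and unfolding free energy was obtained by comparing it with a sequence-predicted unfolded-state K50 and a shared folded-state K50, for each protease separately or for both together. Designs were retained only if their AlphaFold2 dimer inter-PAE exceeded 15.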
row,Sequence,folding stability dG unfold [kcal/mol]
1,SAGGMVLVERDGDRLVLLIPFPADEPPTPEEVEAEARAILRELGPDVRIRSVHRLPDGGYLVEAEVDSAGGS [r8_103_TrMRF],3.56 ± 0.041
2,SAGGVERDPPGKNVYYVEIEIKIEIRDPNNGKPLEIPVPITYPFKSPADALEQMRRQARNLAEKLLNSAGGS [r16_624_TrROS],2.03 ± 0.13
3,SAGGSAGGSGPMPVVVPVEVVVAPGEVDAYVARLRAEGLEVLSVETEPDPEGGTRVTVTVRRLSAGGSAGGS [r12_905_JUSTAS],3.41 ± 0.059
4,SAGGSAAGYAVLVRVEEVRLTSFRRRADGSLLEVDPDVELKLEVLAVFRIYPSPGDGWVVDPSDPASAGGSA [r15_162_TrMRF],3.53 ± 0.062
5,SAGPIKIVVNPDGMLIMVFPHPDGSLMVMIFTFKPNPKNGKRRFEMEMIMIDPDPGDPHVMTMRFEIPPSAG [r5_424_TrROS],4.08 ± 0.18
6,SAGGSAGGSMEPIDLSIVEIKEELLPSGKKKYIVTIETPGKKVKKYTFPPDISIEDIKKLILNSAGGSAGGS [r20_115_JUSTAS],2.69 ± 0.12
7,SAGMIEKLIREAFPAGAKSIRIEVRRLPDGSLLVRIDIHFDDPEVRRALADRIEELLGLPIPDLRVSPDSAG [r5_542_TrMRF],2.81 ± 0.042
8,SAGGSAPVEVRVSVEVLPDGTLRITVEFTLPNGEKLSVEFTIPLAPVPVVDLTSPEALFPALSLLSSAGGSA [r15_1018_TrMRF],2.42 ± 0.17
9,SAGGSAGGMRVRLTFPDGSVVELDLSSLPFSPEEVERAGEEELRALLEEAYPDREIELERVPEPSAGGSAGG [r6_165_JUSTAS],2.63 ± 0.051
10,SAGKYVTFNFPINIPPGDIKQMLNMIRDIARNLGLKPITDIEIDNIQRDDDYYRIRFEITIKVPPGDLKSAG [r5_575_TrROS],3.34 ± 0.43
11,SAGGMSTTYTLKYPGTTVTVTFNPGSVTVDDTDPANPVTKPLPVPPGKPLTLAEVKAALAAAGYAVAESAGG [r13_687_JUSTAS],0.0161 ± 0.21

# Experiment: folding stability dG unfold from chymotrypsin proteolysis; higher = more stable
# Procedure, shortened: as §1
row,Sequence,folding stability dG unfold [kcal/mol]
1,SAGGKEIYKVNKKDFKKILDYLKKKKNAKITIIIKNKPIEIPIKDLEENYKKIKGKPNEPFYLEIEYSAGGS [r16_377_TrMRF],2.28 ± 0.034
2,SAGTIKEIAETIAEFMRQNGMNIKVKLTEVDPNDPNYVKVRVEIEMWYYKKNGKPLGPMRHTMTIVIRSAGG [r19_418_TrROS],3.42 ± 0.13
3,SAGGMTKTESEVFFEPDGSSSSAKVTITVDDGPLTANVTISPDSVTTTINYPDGSTVTTTTSVSPAASAGGS [r16_108_JUSTAS],1.48 ± 0.052
4,SAGWHEIEIEIMIPFPKENAEELAKEIAEEIARMHGFKITNIEVQVYPTDGEYYVMIPVKIRIPPPNDTSAG [r14_219_TrROS],3.15 ± 0.056
5,SKTLTLEVEVPEGPVRIVVEASDGSRLEAEVPADEKVTFTIPIPPDIPEETKVTVRVYNPETGEVTELEASA [r9_275_TrMRF],1.11 ± 0.069
6,SAGGSYRVETTKTEVSEATAPDGTAYRVTTTTTVVTYPDGTRRTVTNVTITDPATGVPTSSTATTTAVSAGG [r13_133_JUSTAS],2.056 ± 0.017
7,SAGGSAGGSAGSKKAVIGGDGATVTYYPPLGYALVTFPDGTAALVDLKTGEIVEIAKTNDSAGGSAGGSAGG [r11_149_TrMRF],2.29 ± 0.037
8,SAGGSAGGSAMQRVEIYFPGLKKVFTKPFKSLEEVEEAVKELLGPEYNPEKVEIKILPENAESAGGSAGGSA [r18_350_TrMRF],1.5 ± 0.14
9,SAGGSAGGSAGKPKEIFVFDKEIDADEAVALLPDEVKEVVVFDIEEAREKGGILIKAVVDSAGGSAGGSAGG [r11_1002_TrMRF],0.898 ± 0.1
10,SAGGSAGGSSLTVTYDPSTGTLTITVPEDQTSVKIKYGDKTYTVPLPPGQTFTVPANTFTLESSAGGSAGGS [r20_26_TrMRF],1.54 ± 0.08
11,SAGGSAGGSMVIRVTTKDGEEVELEIEGMSLEEIKALLPEGVKEVKIEKVEVEPVEVEEEEEESAGGSAGGS [r12_767_TrROS_Hall],1.99 ± 0.27
12,SAGGSAGGSAGGVTIVIGTDKDIPAEVIEKEVADELLKAGIPPDVKVNVVVVPIDPDALSAGGSAGGSAGGS [r10_746_TrMRF],1.17 ± 0.087
13,SAGGKPPNLKIKIEVIPIPNGYWIITFRIKVPPNEPLKIRFPDFGREIEFPPGDEVTIMILIPPDDLSAGGS [r16_56_TrROS],4.8 ± 0.2
14,SAGGSMYLIRITVRNKDGEEVLTIERRVRLEDGKSLEEVAEELRRALESLPNLEVVDVEVVPLEELSAGGSA [r2_192_TrROS_Hall],3.797 ± 0.019
15,SAGGMKVYKISFPNATVTYEEETGKVTINPPDGSTKVIEISPDISIEEVAKKLAEELGFTEATITPEPSAGG [r13_852_JUSTAS],1.36 ± 0.057
16,SAGGSAGGDGPGAPPVPRIRIKVEFEHNGKKVTWEFRSLDDMKEQVKERFKENGLKVKITEIEWSAGGSAGG [r6_869_TrROS],2.04 ± 0.041
17,SAGGSAGGSEKEVYVRNENGELYRFRAKAAPKLKLKLKLELERDENGNLSLRLELEVVSEEDLSAGGSAGGS [r12_1027_TrROS_Hall],5.18 ± 0.15
18,SAGGSAGGKTLTIKLKDSTVTIELPSSISSISRIEVHSDGSLTLYHSSTGSTITLPIPPKIDNPSAGGSAGG [r6_369_TrMRF],2.06 ± 0.035
19,SAGGMKLTPEAKKLAEELKKEGKKVKIEKKDGYYVLTVDGKVYKSKEDMEKAAKDPNVKKVIVIKLPSAGGS [r16_275_TrROS_Hall],1.95 ± 0.18
20,SMPEKVTFPFNIPLEEYSLEEIKEAVRERLEKEGYKVLKPDLFPEQEKLAKEAPPEAELPLLVEALVVPGSA [r9_1163_TrMRF],-0.19 ± 0.25
21,SAGGSAGGSAGVLSLEGVVSTEEFEDPSSSNKTLVITLPGGERVVVNLPSSPSSVVTRLVSAGGSAGGSAGG [r17_182_JUSTAS],0.467 ± 0.066
